Laboratory results from article PMC3366918.

Tests used:
[1] = biological target: HIV-1 Rev wildtype, fused at its carboxy terminus to CFP (donor) or YFP (acceptor) (HIV-1 strain HXB3); test: FRET or BRET
[2] = biological target: ZipRevSLT40: yeast GCN4 leucine zipper fused to the amino terminus of RevSLT40, with CFP or YFP at the carboxy terminus (yeast | HIV-1 strain HXB3); test: FRET or BRET

Substance | percent FRET positive cells [1] [%] | percent FRET positive cells [2] [%]
HIV-1 Rev wildtype, fused at its carboxy terminus to CFP (donor) or YFP (acceptor) (natural protein) | 80.3 | 
ZipRevSLT40: yeast GCN4 leucine zipper fused to the amino terminus of RevSLT40, with CFP or YFP at the carboxy terminus |  | 41.9
